B1: VHH2, E-tagged (clone no. 2, from the humanized-camel VH/VHH phage-display library) (VHH)
VHH: VQLVESGGGSVQAGGSLRLSCTVSGYTDNRYCMGWFRQAPGKEREGVAGINDFGGTTYYVDSVKGRFTISQNNAKNTVYLQMNSLKPEDTAIYYCAIAPRIWGSICSPGTQYNYWGQGTMVTVSS
notes: source: E. coli HB2151, phagemid pCANTAB5E, IPTG-induced, in lysate; not shown: E tag, C-terminal, kept
B2: VHH2, His-tagged, purified and refolded (VHH)
VHH: B1 VHH
notes: not shown: His6, C-terminal, kept
B3: VHH37, His-tagged, purified and refolded (VHH)
VHH: VQLVESGGGSVQAGGSLRLSCTASGFTFDDFDMGWYHQAPGNECELVSTISNAGHTYYADSVKGRFAISRDNAKNMVYLQMNNLKPEDTAMYYCAAVGALLGFPLVLARPRGGYNYWGQGTMVTVSS
notes: as for B2
B4: VHH37, E-tagged (clone no. 37, from the humanized-camel VH/VHH phage-display library) (VHH)
VHH: B3 VHH
notes: as for B1

Target: T1, CyaA-hemolysin (CyaA-Hly), 126-kDa truncated fragment of Bordetella pertussis adenylate cyclase-hemolysin … (Bordetella pertussis, strain not named; …, UniProt P0DKX7)
T1 construct: also called CyaA-Hly toxin; His-tagged CyaA-Hly domain
T1 sequence (P0DKX7 whole entry, looked up, the tested form may be a part): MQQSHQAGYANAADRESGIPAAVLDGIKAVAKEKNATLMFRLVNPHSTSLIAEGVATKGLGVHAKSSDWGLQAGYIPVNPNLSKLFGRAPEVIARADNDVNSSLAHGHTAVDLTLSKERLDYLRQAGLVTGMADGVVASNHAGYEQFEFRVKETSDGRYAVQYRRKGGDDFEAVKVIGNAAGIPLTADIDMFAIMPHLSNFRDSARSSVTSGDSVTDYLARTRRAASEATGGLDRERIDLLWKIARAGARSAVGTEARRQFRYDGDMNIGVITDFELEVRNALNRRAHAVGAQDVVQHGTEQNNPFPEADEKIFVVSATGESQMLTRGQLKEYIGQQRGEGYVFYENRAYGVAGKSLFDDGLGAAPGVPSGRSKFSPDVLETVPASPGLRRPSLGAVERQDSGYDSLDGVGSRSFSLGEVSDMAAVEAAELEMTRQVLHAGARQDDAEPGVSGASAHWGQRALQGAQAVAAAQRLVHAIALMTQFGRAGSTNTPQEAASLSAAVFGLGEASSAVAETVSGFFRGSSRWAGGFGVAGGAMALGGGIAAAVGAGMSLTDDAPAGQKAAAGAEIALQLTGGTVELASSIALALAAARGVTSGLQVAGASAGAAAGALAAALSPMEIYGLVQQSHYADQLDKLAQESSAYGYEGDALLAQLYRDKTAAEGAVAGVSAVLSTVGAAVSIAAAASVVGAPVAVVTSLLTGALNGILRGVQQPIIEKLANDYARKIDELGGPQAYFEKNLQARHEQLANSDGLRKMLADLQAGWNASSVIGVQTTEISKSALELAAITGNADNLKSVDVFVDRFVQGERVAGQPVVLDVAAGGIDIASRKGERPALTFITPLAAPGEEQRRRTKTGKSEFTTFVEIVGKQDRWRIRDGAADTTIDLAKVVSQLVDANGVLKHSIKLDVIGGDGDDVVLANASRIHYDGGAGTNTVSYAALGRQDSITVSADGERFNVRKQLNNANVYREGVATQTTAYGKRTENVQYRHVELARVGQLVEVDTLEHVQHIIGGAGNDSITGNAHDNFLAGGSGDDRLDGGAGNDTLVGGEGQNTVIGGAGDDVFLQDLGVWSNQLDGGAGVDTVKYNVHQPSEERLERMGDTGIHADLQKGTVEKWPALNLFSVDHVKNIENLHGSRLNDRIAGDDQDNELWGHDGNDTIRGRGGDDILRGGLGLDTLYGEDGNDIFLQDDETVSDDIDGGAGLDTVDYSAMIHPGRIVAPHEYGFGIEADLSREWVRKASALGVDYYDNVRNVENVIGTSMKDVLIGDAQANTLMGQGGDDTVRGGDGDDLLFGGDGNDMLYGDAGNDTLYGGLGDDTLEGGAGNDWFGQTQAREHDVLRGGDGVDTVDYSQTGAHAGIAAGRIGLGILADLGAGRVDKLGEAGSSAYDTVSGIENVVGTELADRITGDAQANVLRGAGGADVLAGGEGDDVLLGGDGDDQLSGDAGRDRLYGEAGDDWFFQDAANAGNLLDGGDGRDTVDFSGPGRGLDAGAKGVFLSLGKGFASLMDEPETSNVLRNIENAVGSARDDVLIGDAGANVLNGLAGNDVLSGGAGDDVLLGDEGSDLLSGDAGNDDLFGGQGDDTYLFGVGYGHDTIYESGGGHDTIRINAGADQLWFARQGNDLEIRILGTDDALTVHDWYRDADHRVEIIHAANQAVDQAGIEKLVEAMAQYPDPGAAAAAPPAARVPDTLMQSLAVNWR
Test: ELISA

Binder	binding result (one partner purified)	binding result (both partners purified)
B1	binds	
B2		binds
B3		binds
B4	binds	
